PMC9482650, “Quantitative fragmentomics allow affinity mapping of interactomes” (Nature Communications, 2022)

T1: ARHGEF11, O15085
T1 sequence (O15085 42-136, limits assumed, looked up): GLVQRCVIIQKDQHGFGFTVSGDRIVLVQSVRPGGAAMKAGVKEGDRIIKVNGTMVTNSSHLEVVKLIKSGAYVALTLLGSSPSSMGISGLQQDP

T2: APBA2_1, Q99767
T2 sequence (Q99767 563-664, limits assumed, looked up): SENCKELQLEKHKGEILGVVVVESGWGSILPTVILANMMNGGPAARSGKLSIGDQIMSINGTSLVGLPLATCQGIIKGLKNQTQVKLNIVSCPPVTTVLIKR

T3: NHERF3_4, Q5T2W1
T3 sequence (Q5T2W1 373-468, limits assumed, looked up): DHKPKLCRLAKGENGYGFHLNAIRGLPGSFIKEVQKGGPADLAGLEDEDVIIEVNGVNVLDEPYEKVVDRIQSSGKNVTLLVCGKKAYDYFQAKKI

T4: SNTB1, Q13884
T4 sequence (Q13884 107-205, limits assumed, looked up): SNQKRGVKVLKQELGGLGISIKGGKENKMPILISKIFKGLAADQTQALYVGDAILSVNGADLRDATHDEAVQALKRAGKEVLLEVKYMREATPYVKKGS

T5: LNX2_3, Q8N448
T5 sequence (Q8N448 463-564, limits assumed, looked up): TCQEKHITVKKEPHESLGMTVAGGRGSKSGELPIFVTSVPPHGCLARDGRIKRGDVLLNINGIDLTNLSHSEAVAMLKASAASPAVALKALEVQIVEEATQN

T6: MPP6, Q9NZW5
T6 sequence (Q9NZW5 125-219, limits assumed, looked up): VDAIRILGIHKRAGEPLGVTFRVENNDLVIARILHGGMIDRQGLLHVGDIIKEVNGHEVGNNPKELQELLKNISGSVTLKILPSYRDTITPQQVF

T7: MPP2, Q14168
T7 sequence (Q14168 180-250, limits assumed, looked up): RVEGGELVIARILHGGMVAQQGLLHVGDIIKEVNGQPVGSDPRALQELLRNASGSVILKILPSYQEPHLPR

T8: DLG3_3, Q92796
T8 sequence (Q92796 374-475, limits assumed, looked up): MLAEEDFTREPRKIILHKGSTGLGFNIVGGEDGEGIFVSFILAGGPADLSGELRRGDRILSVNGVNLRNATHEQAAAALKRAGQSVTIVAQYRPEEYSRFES

T9: GRIP1_7, Q9Y3R0
T9 sequence (Q9Y3R0 999-1096, limits assumed, looked up): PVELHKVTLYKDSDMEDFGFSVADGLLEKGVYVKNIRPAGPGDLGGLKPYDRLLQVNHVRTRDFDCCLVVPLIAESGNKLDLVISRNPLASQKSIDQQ

T10: GRIP1_2, Q9Y3R0
T10 sequence (Q9Y3R0 145-248, limits assumed, looked up): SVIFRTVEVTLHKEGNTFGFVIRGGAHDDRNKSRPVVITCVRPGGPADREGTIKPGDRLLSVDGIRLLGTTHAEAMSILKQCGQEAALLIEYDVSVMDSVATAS

T11: GRIP1_3, Q9Y3R0
T11 sequence (Q9Y3R0 247-346, limits assumed, looked up): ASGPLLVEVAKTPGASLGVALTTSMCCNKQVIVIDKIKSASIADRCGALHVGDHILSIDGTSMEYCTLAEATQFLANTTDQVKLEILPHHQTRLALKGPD

T12: APBA2_2, Q99767
T12 sequence (Q99767 654-744, limits assumed, looked up): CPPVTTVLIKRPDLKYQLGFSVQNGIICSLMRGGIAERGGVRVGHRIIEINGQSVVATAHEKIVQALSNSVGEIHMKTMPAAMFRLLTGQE

T13: DFNB31_1, Q9P202
T13 sequence (Q9P202 135-233, limits assumed, looked up): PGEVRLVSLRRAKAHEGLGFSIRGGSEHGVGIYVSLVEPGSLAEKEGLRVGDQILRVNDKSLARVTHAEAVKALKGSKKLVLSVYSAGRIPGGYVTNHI


What follows are binders tested against CASK, O14936 (assay: holdup assay). Settings: plain residues with an end cap or a label only (N-terminal biotin on a linker: ado-ado).
Chain of CASK, O14936 (O14936 487-570): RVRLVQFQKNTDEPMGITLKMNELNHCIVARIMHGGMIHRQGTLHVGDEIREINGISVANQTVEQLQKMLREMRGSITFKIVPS
Parameters: key: below the threshold = too weak to quantify, mostly under pKd 3.1 to 4

Row | pKd | Binder
1 | below the threshold | NTANRRTTPV [CACNG2, Q9Y698]
2 | below the threshold | DRIQSCLSDA [SBF1, O95248]

These binders were tested against T1, ARHGEF11, O15085 (assay: holdup assay). Settings: plain residues with an end cap or a label only (N-terminal biotin on a linker: ado-ado).
Parameters: key: below the threshold = too weak to quantify, mostly under pKd 3.1 to 4

Row | pKd | Binder
3 | 3.83 | NTANRRTTPV [CACNG2, Q9Y698]
4 | below the threshold | DRIQSCLSDA [SBF1, O95248]

Each binder was assayed against T2, APBA2_1, Q99767 (assay: holdup assay). Settings: plain residues with an end cap or a label only (N-terminal biotin on a linker: ado-ado).
Parameters: key: below the threshold = too weak to quantify, mostly under pKd 3.1 to 4

Row | pKd | Binder
5 | below the threshold | NTANRRTTPV [CACNG2, Q9Y698]
6 | below the threshold | DRIQSCLSDA [SBF1, O95248]

The binders below were run against NOS1, P29475 (assay: holdup assay). Settings: plain residues with an end cap or a label only (N-terminal biotin on a linker: ado-ado).
Chain of NOS1, P29475 (P29475 9-101): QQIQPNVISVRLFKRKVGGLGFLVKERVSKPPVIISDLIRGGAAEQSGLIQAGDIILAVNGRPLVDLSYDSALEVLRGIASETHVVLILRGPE
Parameters: key: below the threshold = too weak to quantify, mostly under pKd 3.1 to 4

Row | pKd | Binder
7 | 3.99 | NTANRRTTPV [CACNG2, Q9Y698]
8 | below the threshold | DRIQSCLSDA [SBF1, O95248]

What follows are binders tested against T3, NHERF3_4, Q5T2W1 (assay: holdup assay). Settings: plain residues with an end cap or a label only (N-terminal biotin on a linker: ado-ado).
Parameters: key: below the threshold = too weak to quantify, mostly under pKd 3.1 to 4

Row | pKd | Binder
9 | 3.5 | NTANRRTTPV [CACNG2, Q9Y698]
10 | below the threshold | DRIQSCLSDA [SBF1, O95248]

Each binder was assayed against GORASP2, Q9H8Y8 (assay: holdup assay). Settings: plain residues with an end cap or a label only (N-terminal biotin on a linker: ado-ado).
Parameters: key: below the threshold = too weak to quantify, mostly under pKd 3.1 to 4

Row | pKd | Binder
11 | below the threshold | NTANRRTTPV [CACNG2, Q9Y698]
12 | below the threshold | DRIQSCLSDA [SBF1, O95248]

Each binder was assayed against DLG4_1, P78352 (assay: holdup assay). Settings: plain residues with an end cap or a label only (N-terminal biotin on a linker: ado-ado).
Chain of DLG4_1, P78352 (P78352 62-152): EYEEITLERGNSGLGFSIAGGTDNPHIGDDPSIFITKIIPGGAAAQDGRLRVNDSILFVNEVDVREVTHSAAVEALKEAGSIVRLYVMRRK
Parameters: key: below the threshold = too weak to quantify, mostly under pKd 3.1 to 4

Row | pKd | Binder
13 | 4.5 | NTANRRTTPV [CACNG2, Q9Y698]
14 | below the threshold | DRIQSCLSDA [SBF1, O95248]

What follows are binders tested against LNX1_3, Q8TBB1 (assay: holdup assay). Settings: plain residues with an end cap or a label only (N-terminal biotin on a linker: ado-ado).
Chain of LNX1_3, Q8TBB1 (Q8TBB1 500-596): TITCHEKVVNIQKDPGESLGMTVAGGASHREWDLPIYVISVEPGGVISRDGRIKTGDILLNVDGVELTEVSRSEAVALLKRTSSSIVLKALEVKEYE
Parameters: key: below the threshold = too weak to quantify, mostly under pKd 3.1 to 4

Row | pKd | Binder
15 | below the threshold | NTANRRTTPV [CACNG2, Q9Y698]
16 | below the threshold | DRIQSCLSDA [SBF1, O95248]

These binders were tested against T4, SNTB1, Q13884 (assay: holdup assay). Settings: plain residues with an end cap or a label only (N-terminal biotin on a linker: ado-ado).
Parameters: key: below the threshold = too weak to quantify, mostly under pKd 3.1 to 4

Row | pKd | Binder
17 | 4.23 | NTANRRTTPV [CACNG2, Q9Y698]
18 | below the threshold | DRIQSCLSDA [SBF1, O95248]

Each binder was assayed against T5, LNX2_3, Q8N448 (assay: holdup assay). Settings: plain residues with an end cap or a label only (N-terminal biotin on a linker: ado-ado).
Parameters: key: below the threshold = too weak to quantify, mostly under pKd 3.1 to 4

Row | pKd | Binder
19 | below the threshold | NTANRRTTPV [CACNG2, Q9Y698]
20 | below the threshold | DRIQSCLSDA [SBF1, O95248]

The binders below were run against TJP1_3, Q07157 (assay: holdup assay). Settings: plain residues with an end cap or a label only (N-terminal biotin on a linker: ado-ado).
Chain of TJP1_3, Q07157 (Q07157 416-512): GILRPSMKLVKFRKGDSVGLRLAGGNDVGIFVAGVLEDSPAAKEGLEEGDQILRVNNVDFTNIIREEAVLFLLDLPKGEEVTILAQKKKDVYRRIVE
Parameters: key: below the threshold = too weak to quantify, mostly under pKd 3.1 to 4

Row | pKd | Binder
21 | below the threshold | NTANRRTTPV [CACNG2, Q9Y698]
22 | below the threshold | DRIQSCLSDA [SBF1, O95248]

These binders were tested against T6, MPP6, Q9NZW5 (assay: holdup assay). Settings: plain residues with an end cap or a label only (N-terminal biotin on a linker: ado-ado).
Parameters: key: below the threshold = too weak to quantify, mostly under pKd 3.1 to 4

Row | pKd | Binder
23 | below the threshold | NTANRRTTPV [CACNG2, Q9Y698]
24 | below the threshold | DRIQSCLSDA [SBF1, O95248]

These binders were tested against T7, MPP2, Q14168 (assay: holdup assay). Settings: plain residues with an end cap or a label only (N-terminal biotin on a linker: ado-ado).
Parameters: key: below the threshold = too weak to quantify, mostly under pKd 3.1 to 4

Row | pKd | Binder
25 | below the threshold | NTANRRTTPV [CACNG2, Q9Y698]
26 | below the threshold | DRIQSCLSDA [SBF1, O95248]

What follows are binders tested against T8, DLG3_3, Q92796 (assay: holdup assay). Settings: plain residues with an end cap or a label only (N-terminal biotin on a linker: ado-ado).
Parameters: key: below the threshold = too weak to quantify, mostly under pKd 3.1 to 4

Row | pKd | Binder
27 | 4.69 | NTANRRTTPV [CACNG2, Q9Y698]
28 | below the threshold | DRIQSCLSDA [SBF1, O95248]

The binders below were run against MAST2, Q6P0Q8 (assay: holdup assay). Settings: plain residues with an end cap or a label only (N-terminal biotin on a linker: ado-ado).
Chain of MAST2, Q6P0Q8 (Q6P0Q8 1099-1202): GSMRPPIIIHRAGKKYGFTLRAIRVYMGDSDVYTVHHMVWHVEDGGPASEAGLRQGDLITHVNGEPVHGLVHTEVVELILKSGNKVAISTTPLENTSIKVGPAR
Parameters: key: below the threshold = too weak to quantify, mostly under pKd 3.1 to 4

Row | pKd | Binder
29 | 4.52 | NTANRRTTPV [CACNG2, Q9Y698]
30 | 4.35 | DRIQSCLSDA [SBF1, O95248]

What follows are binders tested against T9, GRIP1_7, Q9Y3R0 (assay: holdup assay). Settings: plain residues with an end cap or a label only (N-terminal biotin on a linker: ado-ado).
Parameters: key: below the threshold = too weak to quantify, mostly under pKd 3.1 to 4

Row | pKd | Binder
31 | below the threshold | NTANRRTTPV [CACNG2, Q9Y698]
32 | below the threshold | DRIQSCLSDA [SBF1, O95248]

What follows are binders tested against T10, GRIP1_2, Q9Y3R0 (assay: holdup assay). Settings: plain residues with an end cap or a label only (N-terminal biotin on a linker: ado-ado).
Parameters: key: below the threshold = too weak to quantify, mostly under pKd 3.1 to 4

Row | pKd | Binder
33 | below the threshold | NTANRRTTPV [CACNG2, Q9Y698]
34 | below the threshold | DRIQSCLSDA [SBF1, O95248]

Each binder was assayed against T11, GRIP1_3, Q9Y3R0 (assay: holdup assay). Settings: plain residues with an end cap or a label only (N-terminal biotin on a linker: ado-ado).
Parameters: key: below the threshold = too weak to quantify, mostly under pKd 3.1 to 4

Row | pKd | Binder
35 | below the threshold | NTANRRTTPV [CACNG2, Q9Y698]
36 | below the threshold | DRIQSCLSDA [SBF1, O95248]

These binders were tested against GRID2IP_1, A4D2P6 (assay: holdup assay). Settings: plain residues with an end cap or a label only (N-terminal biotin on a linker: ado-ado).
Chain of GRID2IP_1, A4D2P6 (A4D2P6 1-87): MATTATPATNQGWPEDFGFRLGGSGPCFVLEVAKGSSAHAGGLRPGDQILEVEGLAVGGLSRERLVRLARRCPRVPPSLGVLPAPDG
Parameters: key: below the threshold = too weak to quantify, mostly under pKd 3.1 to 4

Row | pKd | Binder
37 | below the threshold | NTANRRTTPV [CACNG2, Q9Y698]
38 | below the threshold | DRIQSCLSDA [SBF1, O95248]

These binders were tested against GIPC2, Q8TF65 (assay: holdup assay). Settings: plain residues with an end cap or a label only (N-terminal biotin on a linker: ado-ado).
Chain of GIPC2, Q8TF65 (Q8TF65 112-203): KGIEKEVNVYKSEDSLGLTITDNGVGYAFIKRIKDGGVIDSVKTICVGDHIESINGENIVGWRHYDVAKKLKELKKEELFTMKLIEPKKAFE
Parameters: key: below the threshold = too weak to quantify, mostly under pKd 3.1 to 4

Row | pKd | Binder
39 | below the threshold | NTANRRTTPV [CACNG2, Q9Y698]
40 | below the threshold | DRIQSCLSDA [SBF1, O95248]

The binders below were run against T12, APBA2_2, Q99767 (assay: holdup assay). Settings: plain residues with an end cap or a label only (N-terminal biotin on a linker: ado-ado).
Parameters: key: below the threshold = too weak to quantify, mostly under pKd 3.1 to 4

Row | pKd | Binder
41 | below the threshold | NTANRRTTPV [CACNG2, Q9Y698]
42 | 3.48 | DRIQSCLSDA [SBF1, O95248]

What follows are binders tested against T13, DFNB31_1, Q9P202 (assay: holdup assay). Settings: plain residues with an end cap or a label only (N-terminal biotin on a linker: ado-ado).
Parameters: key: below the threshold = too weak to quantify, mostly under pKd 3.1 to 4

Row | pKd | Binder
43 | 3.76 | NTANRRTTPV [CACNG2, Q9Y698]
44 | below the threshold | DRIQSCLSDA [SBF1, O95248]

These binders were tested against DLG1_3, Q12959 (assay: holdup assay). Settings: plain residues with an end cap or a label only (N-terminal biotin on a linker: ado-ado).
Chain of DLG1_3, Q12959 (Q12959 457-571): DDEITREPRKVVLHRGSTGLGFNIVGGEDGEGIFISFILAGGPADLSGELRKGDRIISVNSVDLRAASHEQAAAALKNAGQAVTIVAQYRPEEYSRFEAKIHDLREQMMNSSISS
Parameters: key: below the threshold = too weak to quantify, mostly under pKd 3.1 to 4

Row | pKd | Binder
45 | 4.16 | NTANRRTTPV [CACNG2, Q9Y698]
46 | below the threshold | DRIQSCLSDA [SBF1, O95248]

The binders below were run against IL16_4, Q14005 (assay: holdup assay). Settings: plain residues with an end cap or a label only (N-terminal biotin on a linker: ado-ado).
Chain of IL16_4, Q14005 (Q14005 1229-1329): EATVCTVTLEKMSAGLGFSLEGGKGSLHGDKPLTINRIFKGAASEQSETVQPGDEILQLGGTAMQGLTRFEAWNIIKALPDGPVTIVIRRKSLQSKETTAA
Parameters: key: below the threshold = too weak to quantify, mostly under pKd 3.1 to 4

Row | pKd | Binder
47 | below the threshold | NTANRRTTPV [CACNG2, Q9Y698]
48 | below the threshold | DRIQSCLSDA [SBF1, O95248]
